Laboratory results published in the supplement of paper PMC9170038.

Tested on: K4 kissing-loop RNA reporter
Test: apparent KD of K4 kissing-loop reporter; higher = weaker reporter binding
Conditions: Eterna round: R107
Procedure: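 RNA-MaP round R107: designed RNA switches with theophylline, tryptophan, arginine or FMN aptamers are transcribed on-chip within common flanks. They are titrated with a labelled K4 kissing-loop RNA reporter in RNA-MaP buffer (100 mM Tris pH 7.5, 80 mM KCl, 4 mM MgCl2), without ligand or with the indicated ligand. Median apparent KD per design.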

[1] = input ligand: theophylline 20 uM
[2] = input ligand: tryptophan 2.4 mM
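Note: bound reporter read as fluorescence of individual clusters on recovered sequencing chips by microscopy, with normalized cluster intensities fitted with a binding model.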

Row | Sequence | apparent KD of K4 kissing-loop reporter (input ligand: FMN 200 uM) [nM] | apparent KD of K4 kissing-loop reporter (input ligand: arginine 13.2 mM) [nM] | apparent KD of K4 kissing-loop reporter (input ligand: none) [nM] | apparent KD of K4 kissing-loop reporter [1] [nM] | apparent KD of K4 kissing-loop reporter [2] [nM]
1 | CUUCGUAAAGGCCCAGUGAUGUUGGGCACUCGAGGACCGGUACGGCCGCCACUCGCUCCCUAAGUCGCGCGCGUGGGCCACCGCC [Xeteoredre] | 111 | 110 | 99.4 | 104 | 113
2 | CUUGAUCGAGGAAGGAGCGGGCCGUCAUUGAGCGCAGUGAUGUUGCGGUCGACUAGUCGAGCCCAGGUAGGUCGCCUGGAGUAAG [Xeveis] | 202 | 159 | 173 | 160 | 192
3 | CUUGUACAAGUGAUGUUUGUUAUAUCCGAAGGAGCGUCGUACUAGACAGGUAGGUCGCGGAUGAAGAUAGUUUUUUUAAUAUCAU [JR_Nu_SSArginiA_Sub028] | 687 | 474 | 761 | 648 | 533
4 | CUUUGAACAUGAGUGAUGUUCAUGUCCGAAGGAGCGUGCGAAAGCACAGGUAGGUCGCGGACGUGAGUGAUGUUCAUGUGAGCGA [KL-XArg-A11 #analogue] | 196 | 134 | 161 | 167 | 154
5 | GAAAGAAAGAAUGAUACCAGACACCCGAGUGAUGUUCGGAGCAGAGUGAUGUUCUUAUAAGUCCCUUGGCAGCAUAAAAGAAAAG [whbob_SS_Theo_B_sa82] | 192 | 171 | 196 | 186 | 153
6 | GAAGGAGACAACAUCACUACUCCUUCAGACUAGGAUAUCAGGAAACUGAGAAGGAGUCUACUUGCAGUGAUGUUGCAAGAAUAAU [[F]''-[K]'-[F]'-[F1]-[F2]-[K1]-[K2]_Design2] | 167 | 123 | 146 | 148 | 118
7 | GAAGGUCAAAGACCUUCGUGCACAACUGAUACCAGUCGCGAAAGCGACCCUUGGCAGCAGGGCAGUGAUGUUGCCAGUGCACAAA [Omei KL Theo A SS A v3] | 157 | 166 | 167 | 124 | 169
8 | GACGGGCAGUGAUGUUGCCGGUCUCUUGGACGAGGACCGGUACGGCCGCCACUCGAUCUGAUGCGGGAAUUGCAUCUUUUAAUAA [Raorbirabe] | 237 | 115 | 185 | 194 | 333
9 | GAUAUAGAGGCGGCCGCCACUAGUGAUGUUAGUGAUGUUAGAUAGAGAAUAGAACAGAGGUGGGAUAGGACCGGGCCAGAUAGAG [whbob_SS_Tryp_B_w34] | 90.6 | 72.7 | 67.9 | 65.8 | 76
10 | GAUUAUUAUUCUAAAUAACAUUAUUCAGAAGGAGCGUGUUUGUACACAGGUAGGUCGCUGAAUGCUAAGCCAGUGAUGUUGGUAA [JR_SSArginiA_Sub001] | 154 | 206 | 203 | 191 | 128
11 | GAUUGAGGAAACUCGAUCUUAUAUCCUAGGCAGGAUAUGCGGAAACGCAGAAGGGCCACCUAGCAGUGAUGUUGCAAGCGAAAGC [Ex FMN A 5] | 203 | 425 | 379 | 471 | 207
12 | GCAAAACAAACGUAGAGUGGAACACAGAGACGAGGACCGGUACGGCCGCCACUCGACGAGGUUUUCAGUGAUGUUGAAAAUUUAG [Exclusion Tryptophan A GF2] | 133 | 162 | 125 | 151 | 199
13 | GCAAAACGCAGUGAUGUUGCGAUAUCGGAAGGAGCGCGUGAAAACGCAGGUAGGUCGCCGAUUCAGUGAGUAUCUCGCUGUUUGC [Arginine A K4 18] | 258 | 283 | 293 | 259 | 232
14 | GCAGCACCGAGUGAUGUUUGGUUCAGCGUGAAGGAUAUAAUAUCUGUUAGAAGGUCAAGUGAGAUUGUCGCGAAUCAGUUUUGAU [theeternabot_exclusion_KL_FMN_A_41] | 368 | 248 | 309 | 332 | 290
15 | GCAGUGAUGUUGCACGAGUAGGGUAGAGUACGAGGACCGGUACGGCCGCCACUCGUACGGAACUCGCUAAUUUAUGGAAUGGUGA [I] | 465 | 590 | 752 | 761 | 497
16 | GCAGUGAUGUUGCGCAGGUACAGUGGAGUGCGAGGACCGGUACGGCCGCCACUCGUACAGAACUAGCUAAUAUAUGGAUAGGUGA [VIII] | 287 | 358 | 315 | 347 | 280
